Experiment: yeast display, Sf9 membrane polyspecificity reagent, FACS + sequencing; frameworks hold sequencing errors
Method in brief: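 Polyreactivity labels are assigned by the sorting gate from which each nanobody was recovered. The gates were low and high (top ~1%), set on anti-HA fluorescence for expression and streptavidin fluorescence for reagent binding. Before sorting, galactose-induced (36–48 hours) yeast display cells were stained for 1 hour at 4 °C with 10% biotinylated, detergent-solubilized Sf9 membrane reagent.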

Row | Sequence | polyreactivity (PSR sort gate)
1 | QVQLVESGGGLVQAGGSLRLSCAASGSILGSNAMGWYRQPPGKESEFVAAITTITGSTYYADSVKGRFTISRDNAKNTVYLEMNSLKPEDTAVYYCNADAHESTDYTLYFSGPYYYWGQGTQVTVSS | low polyreactivity
2 | QVQLVESGGGLVQAGGSLRLSCAASGSTFRSNAMGWYRQAPGKERELVAAITYSGGRTYYADSVKGRFTFSRDNAKNTVYLQMNSLIPEDTAVYYCAKVGWSRRYYYWGQGTQVTVSS | high polyreactivity
3 | QVQLVESGGGLVQAGGSLRLSCAASGFIIDDNTMGWYRQAPGKEMELVAAISYSAGSTYYADSVKGRFTISRDNAKNTVYLQMNSVKPEDTAVYYCAAQHYWVTSYLSSSDYWGQGTQVTVSS | low polyreactivity
4 | QVQLVESGGGLVQAGGSLRLSCAASGSTNRAYAMGWYRQAPGKERELVAAISYSGDSTYYADSVKGRFTISRDNAKNTVYLQMNSLKPEVTAVYYCNTAVWGPHRYDYWGQGTQVTVSS | low polyreactivity
5 | QVQLVESGGGLVQAGGSLRLSCAASGRIFSVYTMGWYRKAPGKERELVATISSGGRTNYADSVKGRFTISRDNAKNTVYLQMNSLKPEDTAVYYCAAVPYGFVGYDDYWGQGTQVTVSS | low polyreactivity
6 | QVQLVESGGGLVQAGGSLRLSCAASGRIFYYYAMGWSRPAPGTERELVASITFSGGRTFYADSVKGRFTISRDNAKKTVYLQMNSLKPEDTAVYYCAAVRWGRRSGGLVAEYDYWGQGTQVNVSS | high polyreactivity
7 | QVQLVESGGGLVQAGGSLRLSCAASGLTFIEYAKGWYRQAPGKERELVAAISSGGRTYYADSVKGRFTISRDNAKNTVYLQMNSLKPEDTAVYYCNARGYRRWYNYWGQGTQVTVSS | high polyreactivity
8 | QVQLVESGGGLVQAGGSLRLSCAASGFNFYGYVMGWYRQAPGKERELVAVISRSGDRTSYADSVKGRFTISRDTAKNTVYLQMNSLKPEDTAVYYCAAESGWGAAGEELDYWGQGTQVTVSS | high polyreactivity
9 | QVQLVESGGGLVQAGGSLRLSCAASGSTFDGNAMGWYRQAPGKERELVAAITYTTSSTYYADSVKGRFTISRDNAKNTVYLQMNSLKPEDTAVYYCAAGVNYRSPGVSKGRDYWGQGTQVTVSS | low polyreactivity
10 | QVQLVESRGGLVQAGGSLRLSCAASGRIFYVNAMGGYRQAPGKERELVAAIDVSGGRTYYADSVKGRFTISRDNAKNTVYLQMNSLKPEDTAVYYCAALKYRWTPYYPYDYWGQGTQVTVSS | low polyreactivity
11 | QVQLVESGGGLVQAGGSLRLSCAASGSTLRRYAMGWYRQAPGTERELVASNSRGGTSTYYADSVKGRFTISRDNAKNTVYLQMKSLKPEDTAVYYCAAATPYRYNYWGQGTQVTVSS | high polyreactivity
12 | QVQLVESGVGLVQAGGSLRLSCASSGLTFNYYAIGWYRQAPGKERELVAAISSDGRTDYADSVKGRFTISRDNAKNTVYLQMNSLKPEDTAFYSCAVEYQSPDDYWGQGTQVTVSS | low polyreactivity
13 | QVHLVESGGGLVQAGGSLRLSCAASGSTFFIYTMGWYRQAPGKEREFVAAISWTGGRTYYADSVKGRFTISRDNAKNTVFLQMNSLKPEDTAVYYCAARYKYYSYDYWGQGTQVTVSS | high polyreactivity
14 | QDQLVESGGGLVQAGGSLRLSCAASGSIFTHNAMGWYRQAPGKERELVAAISSGGSTNYADSVKGRFTFSRDNAKNTVYLQMNSLKPEDTAVYYCAKSIDGWYWRRRRYDYWGQGTQVTVSS | low polyreactivity
15 | QVQLVESGGGLVQAGGSLRLSCAASGSIFKTNARGLYRQAPGTEREFVAAISWSGGSTYADSVKGRFTISRDTAKNTVYLQMNSLKPEDTAVYYCAAVDYYYYGVYSSWYDYWGQGTQVTVSS | low polyreactivity
16 | QEQLVESGGGLVQAGGSLRLSCAASGSIFATYAMGWNRQAPVKERELVAAITSSDGSTNYADSVKGRFTISRDNAKNTVYLLMNSLKPEDTAVYYCAADGTVRSLGRYYHWGQGTQVTVSS | low polyreactivity

Row | Sequence | polyreactivity (PSR sort gate)
17 | QVQLVESGGGLVQAGGSLRLSCAASGFIFRWYAKGWYRQAPGKERELVATITRSGGSTYYADSVKGRFTSSRDNAKNTVYLQMNSLKPEDTAVYYCNAGYSYKYYYWGQGTQVTVSS | high polyreactivity
18 | QVQLVESGGGLVQAGGSLRLTCAASGITFYGYAMGWYRQAPGKERELVAAISKSGGSTHYADSVKGRFTISRDNAKNTVYLQMNSLKPEDTAVYYCAAAYWTRLRRMDYWGQGTQVTVSS | low polyreactivity
19 | QVQLVESGGGLVQAGGSLRLSCAASGRIFIQYGMVWYRQAPGKERELVAAIRSGDSTNYADSVKGRFTISRDNAKNTVYLQMNSLKPEDTSVYYCARDRPGDYAGYDYWGQGTQVTVSS | low polyreactivity
20 | QVQLVESVGGLVQAGGSLRLSCAASGFIIRYYAMGWYRQAPGKERELVAVISSNGARTSYADSVKGRFTISRDNAKNTVYLQMNSLKPEDTAVYYCNARAWSRFPPVGHDYWGQGTQVTVSS | high polyreactivity
21 | QVQLQESGGGLMQAGGNLRLSCAASGYISTHYDMDWYRPAPGKERELVARIDDGAITNYADSVKGRFTISRDNAKNTVYLQMNSLKPEDTAVYYCAVYSGDDYYHDYWGQGTQVTVSS | low polyreactivity
22 | QVQLVESGGGLVQAGGSLRLSCAASGSTFVPYAMGWYRQAPGKERELVARISRRGGSSTYYADSVKGRFTISRDNAKNTVYLQMNSLKPEDTAVYYCNKGHITFASVSSGPSPGGYWGQGTQVTVSS | low polyreactivity
23 | QVQLVESGGGLVQAGGSLRLSCAASGFIFRDNAMGWYRQAPGKERELVAAISERGGRTYYADSVKGRFTISRDNAKNTVYLQMNSLKPEDTAVYYCAAKTIYDTRGIRHYYWGQGTQVTVSS | high polyreactivity
24 | QVQLVESGGGLVQAGGSLRLSCAACGRIFVRNAMGWYRQAPGKERELVADITNGGSTNYADSVKGRFTISRDNAKNTVYLQMNSLKPEDTAVYYCGAVYYSTDYYFWYDYWGQGTQVTVSS | low polyreactivity
25 | QVQLVESGGGLVQAGGSLRLSSASSGSTFSLNAMGWYRQAPGTERELVAAISSSTGRTSYADSVKGRFTISRDNAKNTVYLQMTSLNPEDTAVYYCAADVYESLYFPYDSWRQGTQVTVSS | low polyreactivity
26 | QVQLVESGGGIVQAGGSLRLSCAASGRIFYYYAMGWYRQAPGKESELVAAISRSGGRTYYADSVKGRFTISRDNAKNTVYLHMNSLKPEDTAVYYCNVVRQGGTLGYDYWGQGTQVTVSS | high polyreactivity
27 | QVQLVESGGGLVQAGGSLRLICAASGITFNKYSMGWYRQAPGKERELVAAISSRGCSTYYADSVKGRFTISRDNAKNTVYLQMNSLKPEYTAVYYCAAERGTTYAYDYWGQGTQVTVSS | high polyreactivity
28 | QGHLRESGGGLVQAGGSLRLTCAASGSNLWQYAMGWYRQATGKERELVAAITYSGGSTHYADSVKGRFTISRDNAKNTVYLQLNSLKPEDTAVYYCAAGSWYRYAALRYDHWGQGTQVTVST | low polyreactivity
29 | QVQLVESGGGLVQAGGSLRLSCAASGSIFTNYPMGCYRQAPGKERELVAAISQSGDTTYYADSVKGRFTISRDNAKNTVYLQMNSLKPEDSSVYYCAAQYYRWFYYWGQGTQVTVSS | high polyreactivity
30 | QVQLVESAGGLVQAGGSLRLSCAASGFIFHRYAMGWYRQAPGKERELVAAITGRGSSTYYADSVKGRFTISRDNAKNTVYLQMNSLKPEDTAVYYCNAYRYQVYDTGWFGYWGQGTQVTVSS | high polyreactivity
31 | QVKLVESGGGLVQAGGSLRLSCAASGFTFNGYGMGWYRQAPGKERELVAAISRSSGGTYYADSVKGRFTISRDNAKNTVYLQMNSLKPVDTAVYYCAATGYRTATPSWRYYYWGQGSQVTVSS | high polyreactivity
32 | QVQLVESGGGLVQAGGSLRLSCAASGRTFLRYAMGWYRQAPGKERELVAAISSRGGTTHYADSVKGRFTISRDNAKNTVYLLMNSLKPEDTAVYYCAAKSFLPYLKFGYWGQGTQVTVSS | high polyreactivity

— the nanobody polyreactivity screen of Harvey et al. (2022)
